Laboratory results: the RNAGym collection of RNA variant scans (doi:10.1093/molbev/msab373)

B1: Azoarcus group I ribozyme (parent)
chain: GUGCCUUGCGCCGGGAAACCACGCAAGGGAUGGUGUCAAAUUCGGCGAAACCUAAGCGCCCGCCCGGGCGUAUGGCAACGCCGAGCCAAGCUUCGGCGCCUGCGCCGAUGAAGGUGUAGAGACUAGACGGCACCCACCUAAGGCAAACGCUAUGGUGAAGGCAUAGUCCAGGGAGUGGCGAAAGUCACACAAACCGG

Variants of: B1
Assay: reverse-splicing fitness (ratio to wild type); higher = more active; in vitro selection; Mg2+ level not given
Outline: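 An in vitro group I ribozyme library with randomized positions was T7-transcribed and gel-purified. In triplicate, 10 pmol RNA in EPPS pH 7.5 was reacted with 50 pmoles of a 30-nt RNA substrate for 1 h at 37 °C across several added MgCl2 levels (1–48 mM), then stopped with EDTA. Products were reverse transcribed from a substrate-complementary primer, PCR-amplified and sequenced (HiSeq 4000). Fitness is a variant's read proportion after selection over that before, normalised to wild type.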

Question: Which reverse-splicing fitness does the source give for A111C A120G A145G C150G C169A U176G here?
Answer: 0.00703

Question: Which reverse-splicing fitness does the source give for A111C A120G A145G C150G C169A U176C here?
Answer: 0.0131

Question: For A111C A120G A145G C150G C169A U176A, which reverse-splicing fitness is on record?
Answer: 0.0128

Question: With A111C A120C C150A C169U U176G as the variant, how does the reverse-splicing fitness read?
Answer: 0.00635

Question: For A111C A120C C150A C169U U176C, which reverse-splicing fitness is on record?
Answer: 0.0224

Question: With A111C A120C C150A C169U U176A as the variant, how does the reverse-splicing fitness read?
Answer: 0.0208

Question: Which reverse-splicing fitness does the source give for A111C A120C A145G C169U here?
Answer: 0.184

Question: With A111C A120C A145G C169G as the variant, how does the reverse-splicing fitness read?
Answer: 0.0102

Question: Which reverse-splicing fitness does the source give for A111C A120C A145G C169A here?
Answer: 0.0109

Question: With A111C A120G A145C C150U C169U U176C as the variant, how does the reverse-splicing fitness read?
Answer: 0.0192

Question: Which reverse-splicing fitness does the source give for A111C A120G A145C C150U C169U U176G here?
Answer: 0.00528

Question: For A111C A120G A145C C150U C169U U176A, which reverse-splicing fitness is on record?
Answer: 0.0247

Question: With A111C A120G A145C U176C as the variant, how does the reverse-splicing fitness read?
Answer: 0.0361

Question: For A111C A120G A145C U176A, which reverse-splicing fitness is on record?
Answer: 0.0323

Question: For A111C A120G A145C U176G, which reverse-splicing fitness is on record?
Answer: 0.00548

Question: With A111C A120G A145U C150A as the variant, how does the reverse-splicing fitness read?
Answer: 0.0185

Question: For A111C A120G A145G C169U U176A, which reverse-splicing fitness is on record?
Answer: 0.0413

Question: With A111C A120G A145G C169U U176G as the variant, how does the reverse-splicing fitness read?
Answer: 0.00448

Question: With A111C A120G A145G C169U U176C as the variant, how does the reverse-splicing fitness read?
Answer: 0.045

Question: For A111C A120G A145G C150U C169A U176A, which reverse-splicing fitness is on record?
Answer: 0.0192

Question: With A111C A120G A145G C150U C169A U176G as the variant, how does the reverse-splicing fitness read?
Answer: 0.00548

Question: For A111C A120G A145G C150U C169A U176C, which reverse-splicing fitness is on record?
Answer: 0.0222

Question: With A111C A120C A145G C150G U176C as the variant, how does the reverse-splicing fitness read?
Answer: 0.0368

Question: Which reverse-splicing fitness does the source give for A111C A120C A145G C150G U176G here?
Answer: 0.0072

Question: With A111C A120C A145G C150G U176A as the variant, how does the reverse-splicing fitness read?
Answer: 0.0158

Question: Which reverse-splicing fitness does the source give for A111C A120G A145C C169U U176C here?
Answer: 0.0394

Question: With A111C A120G A145C C169U U176A as the variant, how does the reverse-splicing fitness read?
Answer: 0.0395

Question: For A111C A120G A145C C169U U176G, which reverse-splicing fitness is on record?
Answer: 0.00492

Question: Which reverse-splicing fitness does the source give for A111C A120C A145G C150A C169A U176G here?
Answer: 0.00677

Question: With A111C A120C A145G C150A C169A U176A as the variant, how does the reverse-splicing fitness read?
Answer: 0.0145

Question: Which reverse-splicing fitness does the source give for A111C A120C A145G C150A C169A U176C here?
Answer: 0.0214

Question: With A111C A120G A145C C150A C169A U176G as the variant, how does the reverse-splicing fitness read?
Answer: 0.0054

Question: With A111C A120G A145C C150A C169A U176A as the variant, how does the reverse-splicing fitness read?
Answer: 0.0112

Question: For A111C A120G A145C C150A C169A U176C, which reverse-splicing fitness is on record?
Answer: 0.00698

Question: Which reverse-splicing fitness does the source give for A111C A120C A145G C150A C169G U176C here?
Answer: 0.0253

Question: For A111C A120C A145G C150A C169G U176G, which reverse-splicing fitness is on record?
Answer: 0.00696

Question: Which reverse-splicing fitness does the source give for A111C A120C A145G C150A C169G U176A here?
Answer: 0.0148

Question: For A111C A120C A145U C150U C169U, which reverse-splicing fitness is on record?
Answer: 0.125

Question: Which reverse-splicing fitness does the source give for A111C A120C A145U C150U C169G here?
Answer: 0.00917

Question: Which reverse-splicing fitness does the source give for A111C A120C A145U C150U C169A here?
Answer: 0.0112

Question: Which reverse-splicing fitness does the source give for A111C A120G A145C C150G C169A U176A here?
Answer: 0.00964

Question: With A111C A120G A145C C150G C169A U176C as the variant, how does the reverse-splicing fitness read?
Answer: 0.00838

Question: Which reverse-splicing fitness does the source give for A111C A120G A145C C150G C169A U176G here?
Answer: 0.0045

Question: For A111C A120C C150G C169U U176G, which reverse-splicing fitness is on record?
Answer: 0.00523

Question: For A111C A120C C150G C169U U176C, which reverse-splicing fitness is on record?
Answer: 0.014

Question: With A111C A120C C150G C169U U176A as the variant, how does the reverse-splicing fitness read?
Answer: 0.00759

Question: With A111C A120G A145C C150U C169A U176A as the variant, how does the reverse-splicing fitness read?
Answer: 0.0104

Question: For A111C A120G A145C C150U C169A U176C, which reverse-splicing fitness is on record?
Answer: 0.011

Question: For A111C A120G A145C C150U C169A U176G, which reverse-splicing fitness is on record?
Answer: 0.00455

Question: Which reverse-splicing fitness does the source give for A111C A120C A145U C150G C169G U176G here?
Answer: 0.00591

Question: For A111C A120C A145U C150G C169G U176A, which reverse-splicing fitness is on record?
Answer: 0.00752

Question: Which reverse-splicing fitness does the source give for A111C A120C A145U C150G C169G U176C here?
Answer: 0.00645

Question: With A111C A120G A145G C150G C169G U176G as the variant, how does the reverse-splicing fitness read?
Answer: 0.00543

Question: For A111C A120G A145G C150G C169G U176A, which reverse-splicing fitness is on record?
Answer: 0.0101

Question: With A111C A120G A145G C150G C169G U176C as the variant, how does the reverse-splicing fitness read?
Answer: 0.0114

Question: Which reverse-splicing fitness does the source give for A111C A120C A145C U176G here?
Answer: 0.0513

Question: With A111C A120C A145C U176A as the variant, how does the reverse-splicing fitness read?
Answer: 0.172

Question: Which reverse-splicing fitness does the source give for A111C A120C A145C U176C here?
Answer: 0.197

Question: Which reverse-splicing fitness does the source give for A111C A120C C150A here?
Answer: 0.0821

Question: With A111C A120C C150U as the variant, how does the reverse-splicing fitness read?
Answer: 0.362

Question: With A111C A120C C150G as the variant, how does the reverse-splicing fitness read?
Answer: 0.0496

Question: Which reverse-splicing fitness does the source give for A111C A120C A145U C150A C169U here?
Answer: 0.024

Question: For A111C A120C A145U C150A C169G, which reverse-splicing fitness is on record?
Answer: 0.00628

Question: For A111C A120C A145U C150A C169A, which reverse-splicing fitness is on record?
Answer: 0.00839

Question: For A111C A120G A145G C150G, which reverse-splicing fitness is on record?
Answer: 0.0228

Question: Which reverse-splicing fitness does the source give for A111C A120G A145G C150A here?
Answer: 0.0307

Question: For A111C A120G A145G C150U, which reverse-splicing fitness is on record?
Answer: 0.139

Question: Which reverse-splicing fitness does the source give for A111C A120G A145U C150A C169A U176A here?
Answer: 0.0109

Question: For A111C A120G A145U C150A C169A U176G, which reverse-splicing fitness is on record?
Answer: 0.00497

Question: With A111C A120G A145U C150A C169A U176C as the variant, how does the reverse-splicing fitness read?
Answer: 0.011

Question: Which reverse-splicing fitness does the source give for A111C A120C A145G U176G here?
Answer: 0.0393

Question: Which reverse-splicing fitness does the source give for A111C A120C A145G U176C here?
Answer: 0.203

Question: With A111C A120C A145G U176A as the variant, how does the reverse-splicing fitness read?
Answer: 0.19

Question: With A111C A120G A145G C150G U176C as the variant, how does the reverse-splicing fitness read?
Answer: 0.0155

Question: Which reverse-splicing fitness does the source give for A111C A120G A145G C150G U176G here?
Answer: 0.00613

Question: Which reverse-splicing fitness does the source give for A111C A120G A145G C150G U176A here?
Answer: 0.00942

Question: For A111C A120C C169G, which reverse-splicing fitness is on record?
Answer: 0.00921

Question: With A111C A120C C169U as the variant, how does the reverse-splicing fitness read?
Answer: 0.183

Question: Which reverse-splicing fitness does the source give for A111C A120C C169A here?
Answer: 0.0116

Question: Which reverse-splicing fitness does the source give for A111C A120C A145U C150A U176G here?
Answer: 0.00986

Question: For A111C A120C A145U C150A U176A, which reverse-splicing fitness is on record?
Answer: 0.0359

Question: Which reverse-splicing fitness does the source give for A111C A120C A145U C150A U176C here?
Answer: 0.0526

Question: For A111C A120C C150A C169A, which reverse-splicing fitness is on record?
Answer: 0.00999
